In experiment [1] the target is SpySwitch. Briefly: ITC.
Experiment [2] concerns the target SpySwitch. Briefly: ITC; pH 7.5. A general note: Isothermal titration calorimetry measures the heat released or taken up as one component is titrated into another.

For two substances, stoichiometry N and Kd results are on record in paper PMC9240080.

pKd: −log10 of the molar value.

For orientation: stoichiometry N means a count of units in the complex or per binding partner. For orientation: pKd means the Kd on a negative log10 scale, so that one unit is a factor of ten. Read a high pKd as a small Kd. In the experiment with SpySwitch [1], SpyTag003-MBP returned a stoichiometry N of 1. This substance also showed a negative-log Kd (pKd) with SpySwitch [2] of 5.82.

SpyTag-MBP showed a stoichiometry N with SpySwitch [1] of 1. In the experiment with SpySwitch [2], this substance showed a negative-log Kd (pKd) of 5.96.
